This test concerns the target T1, human CXCL13 (human, UniProt O43927 23-109).
T1 construct: also called huCXCL13; rhCXCL13
T1 sequence (looked up): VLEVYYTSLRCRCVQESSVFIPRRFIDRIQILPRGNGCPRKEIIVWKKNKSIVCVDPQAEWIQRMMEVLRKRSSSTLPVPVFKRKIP
The test can be described thus: SPR Biacore, off-rate ranking of Fabs. A general note: Surface plasmon resonance follows binding to a sensor surface in real time, without labels.

B1: 21H12D9-VH1VL3 (Fab, V domains shown)
VH: QVQLVQSGAEVKKPGASVKVSCKASGYTFTDYYMNWVRQAPGQGLEWMGVINPNNGGTTYKEKFKGRVTMTRDTSISTAYMELSRLRSDDTAVYYCARDDYDAGYWGQGTLVTVSS
VL: DIQMTQSPSSVSTSVGDRVTITCKASQNVDTAVAWYQQKPGKAPKLLIYSASHRYTGVPSRFSGSGSGTDFTLTISSVQPEDFATYYCQQYTDFPLTFGQGTRLEIK
notes: Humanized Fab, human gamma 1 and kappa constant domains; also called 21VH12D9-VH1VL3
A word on the Kd: it is the free concentration of one partner at which half of the binding sites on the other are occupied at equilibrium, for simple one-to-one binding. One may read the koff as the first-order rate constant of dissociation. A higher koff goes with a short-lived complex. The term kon denotes the rate constant with which the complex forms. B1 came in with a Kd of 1.67 nM, a koff of 0.000975 s⁻¹ and a kon of 584000 M⁻¹ s⁻¹.

B2: 21H12D9-VH2VL3 (Fab, V domains shown)
VH: QVQLVQSGAEVVKPGASVKVSCKASGYTFTDYYMNWVRQAPGQGLEWMGVINPNNGGTTYKEKFKGRVTMTVDTSISTAYMELSRLRSDDTAVYYCARDDYDAGYWGQGTLVTVSS
VL: DIQMTQSPSSVSTSVGDRVTITCKASQNVDTAVAWYQQKPGKAPKLLIYSASHRYTGVPSRFSGSGSGTDFTLTISSVQPEDFATYYCQQYTDFPLTFGQGTRLEIK
notes: Humanized Fab, human gamma 1 and kappa constant domains; also called 21VH12D9-VH2VL3
Consider B2, for which the affinity, expressed as Kd, was 1.98 nM; the koff amounted to 0.000992 s⁻¹; the kon was 501000 M⁻¹ s⁻¹.

B3: 21H12D9-VH2VL1 (Fab, V domains shown)
VH: QVQLVQSGAEVVKPGASVKVSCKASGYTFTDYYMNWVRQAPGQGLEWMGVINPNNGGTTYKEKFKGRVTMTVDTSISTAYMELSRLRSDDTAVYYCARDDYDAGYWGQGTLVTVSS
VL: DIQMTQSPSSVSASVGDRVTITCKASQNVDTAVAWYQQKPGKAPKLLIYSASHRYTGVPSRFSGSGSGTDFTLTISSLQPEDFATYYCQQYTDFPLTFGQGTRLEIK
notes: Humanized Fab, human gamma 1 and kappa constant domains; also called 21VH12D9-VH2VL1
Regarding B3, the Kd amounted to 1.74 nM, the koff was 0.000991 s⁻¹ and the kon worked out at 570000 M⁻¹ s⁻¹.

B4: 411A11E9-VH2VL2 (Fab, V domains shown)
VH: EVQLVESGGGLVQPGGSLRLSCAASGFTFSDYYMAWVRQAPGKGLEWVASINYDGGDTYYRDSVKGRFTISRDNAKNSLYLQMNSLRAEDTAVYYCATEEDYDGSYVMDAWGQGTLVTVSS
VL: DIQMTQSPSSLSASVGDRVTITCKASQNINKELTWYQQKPGKAPKRLIYNTNILQTGVPSRFSGSGSGTEFTLTISSLQPEDFATYFCLQQSSLYTFGQGTKLEIK
notes: Humanized Fab, human gamma 1 and kappa constant domains
B4 returned a dissociation constant (Kd) of 1.05 nM, a koff of 0.00271 s⁻¹ and a kon of 2.58e+06 M⁻¹ s⁻¹.

B5: 411A11E9-VH4VL4 (Fab, V domains shown)
VH: EVQLVESGGGLVQPGGSLRLSCAVSGFTFSDYYMAWVRQAPGKGLEWVASINYDGGDTYYRDSVKGRFTVSRDNAKNSLYLQMNSLRAEDTAVYYCATEEDYDGSYVMDAWGQGALVTVSS
VL: DIQMTQSPSSLSASVGDRVTITCKASQNINKELTWYQQKPGKAPKRLIYNTNILQTGIPSRFSGSGSGTEYTLTISSLQPEDFATYFCLQQSSLYTFGQGTKLEIK
notes: as for B4
The molecule B5 showed a Kd of 0.611 nM, a koff of 0.00107 s⁻¹ and a kon of 1.74e+06 M⁻¹ s⁻¹.

B6: 411A11E9-VH4VL1 (Fab, V domains shown)
VH: EVQLVESGGGLVQPGGSLRLSCAVSGFTFSDYYMAWVRQAPGKGLEWVASINYDGGDTYYRDSVKGRFTVSRDNAKNSLYLQMNSLRAEDTAVYYCATEEDYDGSYVMDAWGQGALVTVSS
VL: DIQMTQSPSSLSASVGDRVTITCKASQNINKELTWYQQKPGKAPKRLIYNTNILQTGVPSRFSGSGSGTEFTLTISSLQPEDFATYYCLQQSSLYTFGQGTKLEIK
notes: as for B4
B6: the dissociation constant Kd stood at 1.03 nM, the koff is 0.00281 s⁻¹ and the kon worked out at 2.73e+06 M⁻¹ s⁻¹.

B7: 411A11E9-VH4VL2 (Fab, V domains shown)
VH: EVQLVESGGGLVQPGGSLRLSCAVSGFTFSDYYMAWVRQAPGKGLEWVASINYDGGDTYYRDSVKGRFTVSRDNAKNSLYLQMNSLRAEDTAVYYCATEEDYDGSYVMDAWGQGALVTVSS
VL: DIQMTQSPSSLSASVGDRVTITCKASQNINKELTWYQQKPGKAPKRLIYNTNILQTGVPSRFSGSGSGTEFTLTISSLQPEDFATYFCLQQSSLYTFGQGTKLEIK
notes: as for B4
B7 registered a Kd of 0.944 nM, an off-rate constant (koff) of 0.00196 s⁻¹ and a kon of 2.08e+06 M⁻¹ s⁻¹.

B8: 411A11E9-VH1VL1 (Fab, V domains shown)
VH: EVQLVESGGGLVQPGGSLRLSCAASGFTFSDYYMAWVRQAPGKGLEWVASINYDGGDTYYRDSVKGRFTISRDNAKNSLYLQMNSLRAEDTAVYYCAREEDYDGSYVMDAWGQGTLVTVSS
VL: DIQMTQSPSSLSASVGDRVTITCKASQNINKELTWYQQKPGKAPKRLIYNTNILQTGVPSRFSGSGSGTEFTLTISSLQPEDFATYYCLQQSSLYTFGQGTKLEIK
notes: as for B4
Take B8: binding was put at a Kd of 1.04 nM, the koff turned out to be 0.013 s⁻¹ and the kon is 1.25e+07 M⁻¹ s⁻¹.

B9: 411A11E9-VH4VL3 (Fab, V domains shown)
VH: EVQLVESGGGLVQPGGSLRLSCAVSGFTFSDYYMAWVRQAPGKGLEWVASINYDGGDTYYRDSVKGRFTVSRDNAKNSLYLQMNSLRAEDTAVYYCATEEDYDGSYVMDAWGQGALVTVSS
VL: DIQMTQSPSSLSASVGDRVTITCKASQNINKELTWYQQKPGKAPKRLIYNTNILQTGIPSRFSGSGSGTEFTLTISSLQPEDFATYFCLQQSSLYTFGQGTKLEIK
notes: as for B4
Turning to B9, the affinity, expressed as Kd, was 1.24 nM; the koff is 0.00266 s⁻¹; the kon came to 2.14e+06 M⁻¹ s⁻¹.

B10: 411A11E9-VH3VL1 (Fab, V domains shown)
VH: EVQLVESGGGLVQPGGSLRLSCAVSGFTFSDYYMAWVRQAPGKGLEWVASINYDGGDTYYRDSVKGRFTISRDNAKNSLYLQMNSLRAEDTAVYYCATEEDYDGSYVMDAWGQGTLVTVSS
VL: DIQMTQSPSSLSASVGDRVTITCKASQNINKELTWYQQKPGKAPKRLIYNTNILQTGVPSRFSGSGSGTEFTLTISSLQPEDFATYYCLQQSSLYTFGQGTKLEIK
notes: as for B4
For the molecule B10, binding was put at a Kd of 1.06 nM, the koff was found to be 0.00242 s⁻¹ and the kon is 2.29e+06 M⁻¹ s⁻¹.

B11: 411A11E9-VH3VL3 (Fab, V domains shown)
VH: EVQLVESGGGLVQPGGSLRLSCAVSGFTFSDYYMAWVRQAPGKGLEWVASINYDGGDTYYRDSVKGRFTISRDNAKNSLYLQMNSLRAEDTAVYYCATEEDYDGSYVMDAWGQGTLVTVSS
VL: DIQMTQSPSSLSASVGDRVTITCKASQNINKELTWYQQKPGKAPKRLIYNTNILQTGIPSRFSGSGSGTEFTLTISSLQPEDFATYFCLQQSSLYTFGQGTKLEIK
notes: as for B4
As for B11, the affinity, expressed as Kd, was 1.01 nM; the koff was determined as 0.00207 s⁻¹; the kon came to 2.05e+06 M⁻¹ s⁻¹.

B12: 411A11E9-VH1VL3 (Fab, V domains shown)
VH: EVQLVESGGGLVQPGGSLRLSCAASGFTFSDYYMAWVRQAPGKGLEWVASINYDGGDTYYRDSVKGRFTISRDNAKNSLYLQMNSLRAEDTAVYYCAREEDYDGSYVMDAWGQGTLVTVSS
VL: DIQMTQSPSSLSASVGDRVTITCKASQNINKELTWYQQKPGKAPKRLIYNTNILQTGIPSRFSGSGSGTEFTLTISSLQPEDFATYFCLQQSSLYTFGQGTKLEIK
notes: as for B4
B12 returned a Kd of 3.37 nM, a koff of 0.00176 s⁻¹ and a kon of 523000 M⁻¹ s⁻¹.

B13: 411A11E9-VH2VL3 (Fab, V domains shown)
VH: EVQLVESGGGLVQPGGSLRLSCAASGFTFSDYYMAWVRQAPGKGLEWVASINYDGGDTYYRDSVKGRFTISRDNAKNSLYLQMNSLRAEDTAVYYCATEEDYDGSYVMDAWGQGTLVTVSS
VL: DIQMTQSPSSLSASVGDRVTITCKASQNINKELTWYQQKPGKAPKRLIYNTNILQTGIPSRFSGSGSGTEFTLTISSLQPEDFATYFCLQQSSLYTFGQGTKLEIK
notes: as for B4
B13 gave a Kd of 1.42 nM, a koff of 0.00335 s⁻¹ and an on-rate (kon) of 2.36e+06 M⁻¹ s⁻¹.

B14: 411A11E9-VH2VL1 (Fab, V domains shown)
VH: EVQLVESGGGLVQPGGSLRLSCAASGFTFSDYYMAWVRQAPGKGLEWVASINYDGGDTYYRDSVKGRFTISRDNAKNSLYLQMNSLRAEDTAVYYCATEEDYDGSYVMDAWGQGTLVTVSS
VL: DIQMTQSPSSLSASVGDRVTITCKASQNINKELTWYQQKPGKAPKRLIYNTNILQTGVPSRFSGSGSGTEFTLTISSLQPEDFATYYCLQQSSLYTFGQGTKLEIK
notes: as for B4
Consider B14, for which the affinity, expressed as Kd, was 1.19 nM; the koff was found to be 0.00283 s⁻¹; the kon is 2.37e+06 M⁻¹ s⁻¹.

B15: 71F4A3-VH2VL2 (Fab, V domains shown)
VH: EVQLVQSGGGLVQPGGSLRLSCAASGIDFSRYWMSWVRQAPGKGLEWVAEINPDSSTINYAPSLKDRFTISRDNAKNSLYLQMNSLRAEDTAVYYCARQDDYEYYAMDYWGQGTTVTVSS
VL: DIQMTQSPSSLSASVGDRVTITCKASQDVNTGVAWYQQKPGKAPKLLIYSASYRYTGVPSRFSGSGSGTDFTFTISSVQPEDIATYYCQQYYSTPLTFGGGTKLEIK
notes: as for B4
Regarding B15, the Kd amounted to 0.607 nM, the koff stood at 0.00137 s⁻¹ and the kon came out at 2.25e+06 M⁻¹ s⁻¹.

B16: 71F4A3-VH4VL2 (Fab, V domains shown)
VH: EVQLVQSGGGLVQPGGSLRLSCAASGIDFSRYWMSWVRQAPGKGLEWIGEINPDSSTINYAPSLKDRFTISRDNAKNSLYLQMNSVRAEDTAVYYCARQDDYEYYAMDYWGQGTTVTVSS
VL: DIQMTQSPSSLSASVGDRVTITCKASQDVNTGVAWYQQKPGKAPKLLIYSASYRYTGVPSRFSGSGSGTDFTFTISSVQPEDIATYYCQQYYSTPLTFGGGTKLEIK
notes: as for B4
The molecule B16 showed a Kd of 0.53 nM, a koff of 0.00136 s⁻¹ and a kon of 2.57e+06 M⁻¹ s⁻¹.

B17: 71F4A3-VH3VL2 (Fab, V domains shown)
VH: EVQLVQSGGGLVQPGGSLRLSCAASGIDFSRYWMSWVRQAPGKGLEWVGEINPDSSTINYAPSLKDRFTISRDNAKNSLYLQMNSVRAEDTAVYYCARQDDYEYYAMDYWGQGTTVTVSS
VL: DIQMTQSPSSLSASVGDRVTITCKASQDVNTGVAWYQQKPGKAPKLLIYSASYRYTGVPSRFSGSGSGTDFTFTISSVQPEDIATYYCQQYYSTPLTFGGGTKLEIK
notes: as for B4
Turning to B17, the Kd turned out to be 0.557 nM, the dissociation rate constant (koff) stood at 0.00139 s⁻¹ and the kon is 2.5e+06 M⁻¹ s⁻¹.

B18: 71F4A3-VH4VL1 (Fab, V domains shown)
VH: EVQLVQSGGGLVQPGGSLRLSCAASGIDFSRYWMSWVRQAPGKGLEWIGEINPDSSTINYAPSLKDRFTISRDNAKNSLYLQMNSVRAEDTAVYYCARQDDYEYYAMDYWGQGTTVTVSS
VL: DIQMTQSPSSLSASVGDRVTITCKASQDVNTGVAWYQQKPGKAPKLLIYSASYRYTGVPSRFSGSGSGTDFTFTISSLQPEDIATYYCQQYYSTPLTFGGGTKLEIK
notes: as for B4
Consider B18, for which the Kd came to 0.59 nM, the koff amounted to 0.001 s⁻¹ and the kon came out at 1.7e+06 M⁻¹ s⁻¹.

The record behind these values is patent US20210284724A1 (I MAB BIOPHARMA US, published 2021).
